Measurements reported in paper PMC5932559, “Defective mitochondrial protease LonP1 can cause classical mitochondrial disease” (Human Molecular Genetics, 2018).
Changes are numbered by the printed parent chain. Numbers in names are those of the source.

B1: wild-type LonP1 lacking the mitochondrial targeting sequence, C-terminal 6xHis (enzyme)
chain: MTIPDVFPHLPLIAITRNPVFPRFIKIIEVKNKKLVELLRRKVRLAQPYVGVFLKRDDSNESDVVESLDEIYHTGTFAQIHEMQDLGDKLRMIVMGHRRVHISRQLEVEPEEPEAENKHKPRRKSKRGKKEAEDELSARHPAELAMEPTPELPAEVLMVEVENVVHEDFQVTEEVKALTAEIVKTIRDIIALNPLYRESVLQMMQAGQRVVDNPIYLSDMGAALTGAESHELQDVLEETNIPKRLYKALSLLKKEFELSKLQQRLGREVEEKIKQTHRKYLLQEQLKIIKKELGLEKDDKDAIEEKFRERLKELVVPKHVMDVVDEELSKLGLLDNHSSEFNVTRNYLDWLTSIPWGKYSNENLDLARAQAVLEEDHYGMEDVKKRILEFIAVSQLRGSTQGKILCFYGPPGVGKTSIARSIARALNREYFRFSVGGMTDVAEIKGHRRTYVGAMPGKIIQCLKKTKTENPLILIDEVDKIGRGYQGDPSSALLELLDPEQNANFLDHYLDVPVDLSKVLFICTANVTDTIPEPLRDRMEMINVSGYVAQEKLAIAERYLVPQARALCGLDESKAKLSSDVLTLLIKQYCRESGVRNLQKQVEKVLRKSAYKIVSGEAESVEVTPENLQDFVGKPVFTVERMYDVTPPGVVMGLAWTAMGGSTLFVETSLRRPQDKDAKGDKDGSLEVTGQLGEVMKESARIAYTFARAFLMQHAPANDYLVTSHIHLHVPEGATPKDGPSAGCTIVTALLSLAMGRPVRQNLAMTGEVSLTGKILPVGGIKEKTIAAKRAGVTCIVLPAENKKDFYDLAAFITEGLEVHFVEHYREIFDIAFPDEQAEALAVER
B2: TFAM (natural protein, UniProt Q00059 43-246, looked up)
chain: SSVLASCPKKPVSSYLRFSKEQLPIFKAQNPDAKTTELIRRIAQRWRELPDSKKKIYQDAYRAEWQVYKEEISRFKEQLTPSQIMSLEKEIMDKHLKRKAMTKKKELTLLGKPKRPRSAYNVYVAERFQEAKGDSPQEKLKTVKENWKNLSDSEKELYIQHAKEDETRYHNEMKSWEEQMIEVGRKDLLRRTIKKQRKYGAEEC
modifications: NT-547-maleimide dye on cysteine (for microscale thermophoresis)
notes: TFAM, the mitochondrial transcription and mtDNA packaging factor and a LonP1 substrate; recombinant; It was unlabelled in the proteolysis assays; also called TFAM substrate
B3: p.(Tyr565His) LonP1 mutant lacking the mitochondrial targeting sequence, C-terminal 6xHis (enzyme, human, UniProt P36776-1 115-959, looked up)
chain: B1 chain with Y451H
notes: A variant found in a patient and in ExAC; also called Y565H; hTyr565His
B4: p.(Glu733Lys) LonP1 mutant lacking the mitochondrial targeting sequence, C-terminal 6xHis (enzyme, human, UniProt P36776-1 115-959, looked up)
chain: B1 chain with E619K
notes: A variant found in a patient and in ExAC; also called E733K; hGlu733Lys

Assays:
[1] = biological target: T1, TFAM (UniProt Q00059 43-246, NT-547-maleimide dye on cysteine (for microscale thermophoresis)); assay: MST; 4 mM AMP-PNP
T1 chain: B2 chain

[2] = biological target: T2, wild-type LonP1 lacking the mitochondrial targeting sequence, C-terminal 6xHis (human, UniProt P36776-1 115-959); assay: MST; TFAM labelled with NT-547-maleimide, unlabelled LonP1 titrated (2.3-4650 nM); MST buffer (50 mM Tris-HCl pH 8.0, 10 mM MgCl2, 10% glycerol) without nucleotide; 24°C; Monolith NT.115; conditions: both partners purified
T2 construct: called the mature protein; Hexamer at low salt with ATP, mostly monomer in 1 M NaCl without ATP; also called WT; LonP1 wild-type; source: pET-20b, induced with 1 mM IPTG, purified (His-Select nickel, HiTrap Heparin, MonoQ, Superdex 200)
T2 sequence (looked up): B1 chain

[3] = biological target: B4; assay: as above; conditions: both partners purified
[4] = biological target: T3, 1:1 mixture of wild-type and p.(Tyr565His) LonP1, oligomerised by dialysis from high salt (human, UniProt P36776-1 115-959; P36776-1 115-959, p.(Tyr565His)); assay: MST; as a3, with 4 mM AMP-PNP; LonP1 forms or 1:1 mixtures titrated (2.3-4650 nM) against labelled TFAM; 24°C; conditions: both partners purified
T3 construct: as the chain of m1; as the chain of m2; also called WT/Y565H; WT + Y565H; source: equimolar purified LonP1 forms mixed in high salt, oligomerised by dialysis

[5] = biological target: T4, 1:1 mixture of wild-type and p.(Glu733Lys) LonP1, oligomerised by dialysis from high salt (human, UniProt P36776-1 115-959; P36776-1 115-959, p.(Glu733Lys)); assay: as above; conditions: both partners purified
T4 construct: as the chain of m1; as the chain of m3; The make-up of the oligomers (heterohexamers or separate homohexamers) was not determined; also called WT/E733K; WT + E733K; source: equimolar purified LonP1 forms mixed in high salt, oligomerised by dialysis

[6] = biological target: the molecule itself; assay: SEC; Superose 6 Increase 10/300; 20 mM Tris-HCl pH 8.0, 10% glycerol, 2 mM DTT, 50 mM NaCl, 10 mM MgCl2, samples incubated 10 min at 37°C with ATP (1 mM in the methods, 4 mM in the legend); fractions on SDS-PAGE, size calibration curve; in 1 M NaCl without ATP higher-order oligomers were largely prevented

B1 gave a Kd [1] of 2.2 µM.

In the case of B2, the Kd [2] is reported as 1.36 µM, the Kd [3] is reported as 1.52 µM and the Kd [4] is reported as 3.22 µM. For the same binder, the Kd [5] was 2.17 µM.

B3 was tested, and the “stoichiometry N” value [6] was 6.

In the case of B4, the “stoichiometry N” value [6] is reported as 6.
